B1: wild type p16-NLuc (mouse p16 tagged with NanoLuc luciferase) [mouse] / 3×Flag-tagged wild type CDK6 [mouse (by the printed Gene ID 12571; not stated in words for CDK6)] (parent complex)
chain 1: MESAADRLARAAAQGRVHDVRALLEAGVSPNAPNSFGRTPIQVMMMGNVHVAALLLNYGADSNCEDPTTFSRPVHDAAREGFLDTLVVLHGSGARLDVRDAWGRLPLDLAQERGHQDIVRYLRSAGCSLCSAGWSLCTAGNVAQTDGHSFSSSTPRALELRGQSQEQS
chain 2: MEKDSLSRADQQYECVAEIGEGAYGKVFKARDLKNGGRFVALKRVRVQTSEEGMPLSTIREVAVLRHLETFEHPNVVRLFDVCTVSRTDRETKLTLVFEHVDQDLTTYLDKVPEPGVPTETIKDMMFQLLRGLDFLHSHRVVHRDLKPQNILVTSSGQIKLADFGLARIYSFQMALTSVVVTLWYRAPEVLLQSSYATPVDLWSVGCIFAEMFRRKPLFRGSSDVDQLGKILDIIGLPGEEDWPRDVALPRQAFHSKSAQPIEKFVTDIDELGKDLLLKCLTFNPAKRISAYGALNHPYFQDLERYKDNLNSHLPSNQSTSELNTA

Variants of: B1
Test: LUMIER assay (Flag IP, on-bead NanoLuc bioluminescence); HEK293T cells, transient expression; n = 6 independent experiments; signals normalised on input; parent: 1; read off a plot

First: chain 1 MESAADRLARAAAQGRVHDVRALLEAGVSPNAPNSFGRTPIQVMMMGNVHVAALLLNYGADSNCEDPTTFSRLVHDAAREGFLDTLVVLHGSGARLDVRDAWGRLPLDLAQERGHQDIVRYLRSAGCSLCSAGWSLCTAGNVAQTDGHSFSSSTPRALELRGQSQEQS [chain 1 P73L]
Second: chain 1 MESAADRLARAAAQGRVHDVRALLEAGVSPNAPNSFGRTPIQVMMMDNVHVAALLLNYGADSNCEDPTTFSRPVHDAAREGFLDTLVVLHGSGARLDVRDAWGRLPLDLAQERGHQDIVRYLRSAGCSLCSAGWSLCTAGNVAQTDGHSFSSSTPRALELRGQSQEQS [chain 1 G47D]
The ratio to parent of the first is higher: ~0.6 for the first, ~0.08 for the second.

With chain 1 MESAADRLARAAAQSRVHDVRALLEAGVSPNAPNSFGRTPIQVMMMGNVHVAALLLNYGADSNCEDPTTFSRPVHDAAREGFLDTLVVLHGSGARLDVRDAWGRLPLDLAQERGHQDIVRYLRSAGCSLCSAGWSLCTAGNVAQTDGHSFSSSTPRALELRGQSQEQS [chain 1 G15S] the ratio to parent was ~0.18.

Variants of: B1
Test: as above
Remark: another data set of the same source

Compared with chain 2 MEKDSLSRADQQYECVAEIGEGAYGKVFKARDLKNGGRFVALKRVRVQTSEEGMPLSTIREVAVLRHLETFEHPNVVRLFDVCTVSRTDRETKLTLVFEHVDQDLTTYLHKVPEPGVPTETIKDMMFQLLRGLDFLHSHRVVHRDLKPQNILVTSSGQIKLADFGLARIYSFQMALTSVVVTLWYRAPEVLLQSSYATPVDLWSVGCIFAEMFRRKPLFRGSSDVDQLGKILDIIGLPGEEDWPRDVALPRQAFHSKSAQPIEKFVTDIDELGKDLLLKCLTFNPAKRISAYGALNHPYFQDLERYKDNLNSHLPSNQSTSELNTA [chain 2 D110H], chain 2 MEKDSLSRADQQYECVAEIGEGAYGKVFKARDLKNGGRFVALKRVRVQTSEEGMPLSTIREVAVLRHLETFEHPNVVRLFDVCTVSRTDRETKLTLVFEHVNQDLTTYLDKVPEPGVPTETIKDMMFQLLRGLDFLHSHRVVHRDLKPQNILVTSSGQIKLADFGLARIYSFQMALTSVVVTLWYRAPEVLLQSSYATPVDLWSVGCIFAEMFRRKPLFRGSSDVDQLGKILDIIGLPGEEDWPRDVALPRQAFHSKSAQPIEKFVTDIDELGKDLLLKCLTFNPAKRISAYGALNHPYFQDLERYKDNLNSHLPSNQSTSELNTA [chain 2 D102N] is lower in ratio to parent: ~0.6 for the first, ~0.5 for the second.
